We go through four molecules from article PMC8351538 (Molecular Biology of the Cell, 2021).

Where two headings read alike, the source gives them in different places.

For test [1], the target named is T1, Gyp6 (S. cerevisiae (endogenous, purified …, UniProt P32806 1-458)).
T1 sequence: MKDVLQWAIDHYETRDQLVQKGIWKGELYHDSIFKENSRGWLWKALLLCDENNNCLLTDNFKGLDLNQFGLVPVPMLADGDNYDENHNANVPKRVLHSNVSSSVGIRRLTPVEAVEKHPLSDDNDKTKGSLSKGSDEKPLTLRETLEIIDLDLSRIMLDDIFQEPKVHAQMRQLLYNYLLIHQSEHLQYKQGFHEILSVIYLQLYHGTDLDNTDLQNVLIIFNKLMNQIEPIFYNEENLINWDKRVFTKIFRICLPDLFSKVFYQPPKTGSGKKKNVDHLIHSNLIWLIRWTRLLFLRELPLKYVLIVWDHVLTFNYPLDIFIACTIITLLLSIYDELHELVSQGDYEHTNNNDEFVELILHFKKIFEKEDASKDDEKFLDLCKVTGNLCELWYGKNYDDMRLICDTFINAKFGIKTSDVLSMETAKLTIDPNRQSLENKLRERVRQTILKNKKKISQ
The test is described as follows: liposome flotation.

The target of another test is Sec7 (S. cerevisiae (endogenous, purified …, UniProt P11075 1-2009)). The test can be described thus: liposome flotation.
A further test addresses T2, Gdi1 (S. cerevisiae, UniProt P39958 1-451).
T2 sequence: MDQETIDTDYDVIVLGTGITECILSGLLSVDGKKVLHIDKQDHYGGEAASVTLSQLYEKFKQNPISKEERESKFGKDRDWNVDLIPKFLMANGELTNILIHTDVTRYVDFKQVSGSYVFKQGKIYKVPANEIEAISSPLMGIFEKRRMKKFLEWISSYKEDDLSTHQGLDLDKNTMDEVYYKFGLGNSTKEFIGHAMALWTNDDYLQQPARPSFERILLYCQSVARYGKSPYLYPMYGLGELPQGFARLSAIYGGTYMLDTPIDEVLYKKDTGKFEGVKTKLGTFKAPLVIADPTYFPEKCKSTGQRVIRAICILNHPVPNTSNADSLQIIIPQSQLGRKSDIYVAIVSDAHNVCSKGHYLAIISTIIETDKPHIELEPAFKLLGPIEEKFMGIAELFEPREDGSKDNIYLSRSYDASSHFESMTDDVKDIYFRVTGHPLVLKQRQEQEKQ
The test can be described thus: SEC.

In test [2] the target is T1, Gyp6. The test is described as follows: liposome flotation. This is another data set of the same source.

Chain of Sec7 (S. cerevisiae (P11075 whole entry): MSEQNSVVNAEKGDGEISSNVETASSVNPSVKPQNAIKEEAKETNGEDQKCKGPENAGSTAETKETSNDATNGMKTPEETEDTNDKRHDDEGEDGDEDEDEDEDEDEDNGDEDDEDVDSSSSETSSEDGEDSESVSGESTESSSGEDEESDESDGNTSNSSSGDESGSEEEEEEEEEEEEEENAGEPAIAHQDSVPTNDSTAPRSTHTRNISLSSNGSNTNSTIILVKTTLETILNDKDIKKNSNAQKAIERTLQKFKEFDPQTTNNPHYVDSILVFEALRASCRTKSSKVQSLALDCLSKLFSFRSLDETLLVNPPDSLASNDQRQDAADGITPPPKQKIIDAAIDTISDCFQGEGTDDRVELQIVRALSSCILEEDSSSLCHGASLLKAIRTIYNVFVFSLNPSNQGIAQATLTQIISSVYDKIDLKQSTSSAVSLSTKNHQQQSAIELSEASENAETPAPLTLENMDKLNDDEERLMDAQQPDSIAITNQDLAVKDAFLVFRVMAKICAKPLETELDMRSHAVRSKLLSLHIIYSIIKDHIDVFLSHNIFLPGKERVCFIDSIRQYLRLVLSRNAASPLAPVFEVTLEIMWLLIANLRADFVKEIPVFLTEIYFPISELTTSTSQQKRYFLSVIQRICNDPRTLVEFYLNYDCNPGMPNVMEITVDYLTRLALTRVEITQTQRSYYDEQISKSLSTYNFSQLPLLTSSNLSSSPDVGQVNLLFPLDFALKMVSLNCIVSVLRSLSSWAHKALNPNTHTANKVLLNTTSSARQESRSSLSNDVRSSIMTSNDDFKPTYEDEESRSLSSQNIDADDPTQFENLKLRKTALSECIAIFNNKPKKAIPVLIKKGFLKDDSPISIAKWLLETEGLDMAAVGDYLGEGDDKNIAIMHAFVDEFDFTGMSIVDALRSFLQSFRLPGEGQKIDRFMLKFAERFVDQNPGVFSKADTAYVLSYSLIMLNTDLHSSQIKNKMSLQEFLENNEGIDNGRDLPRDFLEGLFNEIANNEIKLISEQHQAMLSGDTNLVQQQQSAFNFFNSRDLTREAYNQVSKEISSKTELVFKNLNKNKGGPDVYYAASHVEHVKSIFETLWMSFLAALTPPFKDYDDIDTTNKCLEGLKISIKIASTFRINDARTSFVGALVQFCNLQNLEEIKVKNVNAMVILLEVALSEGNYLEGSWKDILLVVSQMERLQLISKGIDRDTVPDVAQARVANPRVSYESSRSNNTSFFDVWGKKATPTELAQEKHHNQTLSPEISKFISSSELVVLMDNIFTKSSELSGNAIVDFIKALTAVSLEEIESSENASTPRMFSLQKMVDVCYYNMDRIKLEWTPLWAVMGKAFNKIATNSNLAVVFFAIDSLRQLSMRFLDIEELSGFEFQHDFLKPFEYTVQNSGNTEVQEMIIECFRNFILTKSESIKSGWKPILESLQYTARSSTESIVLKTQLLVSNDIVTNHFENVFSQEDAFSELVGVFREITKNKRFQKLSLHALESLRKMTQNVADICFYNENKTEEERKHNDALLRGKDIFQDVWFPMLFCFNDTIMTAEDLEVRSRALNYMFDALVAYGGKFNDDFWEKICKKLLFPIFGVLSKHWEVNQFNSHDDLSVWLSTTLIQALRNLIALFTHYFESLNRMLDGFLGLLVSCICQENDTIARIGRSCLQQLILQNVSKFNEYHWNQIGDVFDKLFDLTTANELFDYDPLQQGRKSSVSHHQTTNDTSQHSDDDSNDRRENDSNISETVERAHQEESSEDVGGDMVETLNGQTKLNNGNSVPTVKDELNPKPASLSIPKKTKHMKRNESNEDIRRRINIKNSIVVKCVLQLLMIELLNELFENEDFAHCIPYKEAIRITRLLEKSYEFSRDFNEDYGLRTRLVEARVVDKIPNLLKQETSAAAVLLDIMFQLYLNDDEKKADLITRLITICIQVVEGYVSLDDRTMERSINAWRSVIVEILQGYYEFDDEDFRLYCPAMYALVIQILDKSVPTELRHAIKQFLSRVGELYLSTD

B1: prenylated Ypt32 (natural protein)
chain: MSNEDYGYDYDYLFKIVLIGDSGVGKSNLLSRFTTDEFNIESKSTIGVEFATRTIEVENKKIKAQIWDTAGQERYRAITSAYYRGAVGALIVYDISKSSSYENCNHWLTELRENADDNVAVGLIGNKSDLAHLRAVPTDEAKNFAMENQMLFTETSALNSDNVDKAFRELIVAIFQMVSKHQVDLSGSGTNNMGSNGAPKGPTISLTPAPKEDKKKKSSNCC
modifications: prenylated in vitro (geranylgeranyl pyrophosphate, GGTase)
On to B1, for which the binding result in the test with Gyp6 [1], with Sec7 and in the test with Gdi1 was “binds” each time.

B2: myristoylated Arl1 (natural protein)
chain: MGNIFSSMFDKLWGSNKELRILILGLDGAGKTTILYRLQIGEVVTTKPTIGFNVETLSYKNLKLNVWDLGGQTSIRPYWRCYYADTAAVIFVVDSTDKDRMSTASKELHLMLQEEELQDAALLVFANKQDQPGALSASEVSKELNLVELKDRSWSIVASSAIKGEGITEGLDWLIDVIKEEQL
modifications: N-myristoylated
Turning to B2, in the test with Gyp6 [2], the binding result was “binds”.

B3: prenylated Ypt1 (natural protein)
chain: not shown
modifications: prenylated in vitro (geranylgeranyl pyrophosphate, GGTase)
For the molecule B3, the binding result with Gdi1 is given as “binds”.

B4: prenylated Ypt6 (natural protein)
chain: MSRSGKSLTKYKIVFLGEQGVGKTSLITRFMYDTFDDHYQATIGIDFLSKTMYLDDKTIRLQLWDTAGQERFRSLIPSYIRDSRVAIIVYDITKRKSFEYIDKWIEDVKNERGDENVILCIVGNKSDLSDERQISTEEGEKKAKLLGAKIFMETSTKAGYNVKALFKKIAKSLPEFQNSESTPLDSENANSANQNKPGVIDISTAEEQEQSACQC
modifications: prenylated in vitro (geranylgeranyl pyrophosphate, GGTase)
As to B4, in the test with Gdi1, the binding result was “binds”.
